The term Kd denotes the concentration at which binding is half-saturated.

This is an account of results in paper PMC7840601 (2020).

The target of the experiment is human C3b (CompTech) (human). Nature of the experiment: SPR.
human C3b (CompTech) (human), sequence (chain, as listed by the source, chain 1 of 2): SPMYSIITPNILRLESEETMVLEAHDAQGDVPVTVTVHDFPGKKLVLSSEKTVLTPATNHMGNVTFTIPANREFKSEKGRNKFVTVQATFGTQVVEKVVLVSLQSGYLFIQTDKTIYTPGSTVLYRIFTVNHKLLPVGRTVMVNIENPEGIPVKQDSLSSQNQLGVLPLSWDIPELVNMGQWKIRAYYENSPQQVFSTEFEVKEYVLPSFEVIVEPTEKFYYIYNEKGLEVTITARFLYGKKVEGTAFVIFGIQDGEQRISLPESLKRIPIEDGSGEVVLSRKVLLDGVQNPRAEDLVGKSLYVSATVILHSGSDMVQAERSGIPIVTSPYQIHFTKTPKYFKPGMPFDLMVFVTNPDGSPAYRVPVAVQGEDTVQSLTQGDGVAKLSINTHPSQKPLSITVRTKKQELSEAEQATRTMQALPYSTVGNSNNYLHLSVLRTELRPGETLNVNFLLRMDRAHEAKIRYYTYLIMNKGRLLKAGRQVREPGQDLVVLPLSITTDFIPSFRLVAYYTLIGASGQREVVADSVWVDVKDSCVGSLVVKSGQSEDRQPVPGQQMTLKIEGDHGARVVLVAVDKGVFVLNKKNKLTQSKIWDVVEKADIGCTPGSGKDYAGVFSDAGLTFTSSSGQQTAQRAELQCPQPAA
human C3b (CompTech) (human), sequence (chain, as listed by the source, chain 2 of 2): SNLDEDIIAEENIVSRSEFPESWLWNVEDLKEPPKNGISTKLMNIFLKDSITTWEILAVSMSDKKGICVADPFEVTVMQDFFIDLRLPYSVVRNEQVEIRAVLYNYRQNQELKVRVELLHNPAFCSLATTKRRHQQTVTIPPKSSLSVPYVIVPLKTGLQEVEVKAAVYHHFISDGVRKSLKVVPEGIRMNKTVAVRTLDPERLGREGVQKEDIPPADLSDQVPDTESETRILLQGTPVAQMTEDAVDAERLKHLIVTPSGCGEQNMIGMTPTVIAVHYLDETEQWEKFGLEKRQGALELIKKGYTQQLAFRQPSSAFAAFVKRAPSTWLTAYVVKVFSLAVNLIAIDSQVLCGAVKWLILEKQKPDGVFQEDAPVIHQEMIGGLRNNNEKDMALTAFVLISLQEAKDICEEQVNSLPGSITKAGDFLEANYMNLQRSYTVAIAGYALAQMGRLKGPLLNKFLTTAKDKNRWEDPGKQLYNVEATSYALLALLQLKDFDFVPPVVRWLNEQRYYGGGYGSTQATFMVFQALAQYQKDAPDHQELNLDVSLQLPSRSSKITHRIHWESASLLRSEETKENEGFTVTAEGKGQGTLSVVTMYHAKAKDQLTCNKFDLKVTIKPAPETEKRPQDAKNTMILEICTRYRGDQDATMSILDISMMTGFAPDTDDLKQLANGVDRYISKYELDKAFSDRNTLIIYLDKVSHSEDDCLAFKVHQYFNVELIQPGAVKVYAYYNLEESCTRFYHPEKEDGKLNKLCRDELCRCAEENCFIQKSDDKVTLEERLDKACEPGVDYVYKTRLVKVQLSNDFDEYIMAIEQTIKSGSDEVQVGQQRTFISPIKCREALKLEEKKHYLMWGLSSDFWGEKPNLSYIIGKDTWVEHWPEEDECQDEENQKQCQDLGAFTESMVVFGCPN

B1: FH1-4 WT (complement factor H CCPs 1-4, wild type) (domain or fragment)
chain: EDCNELPPRRNTEILTGSWSDQTYPEGTQAIYKCRPGYRSLGNVIMVCRKGEWVALNPLRKCQKRPCGHPGDTPFGTFTLTGGNVFEYGVKAVYTCNEGYQLLGEINYRECDTDGWTNDIPICEVVKCLPVTAPENGKIVSSAMEPDREYHFGQAVRFVCNSGYKIEGDEEMHCSDDGFWSKEKPKCVEISCKSPDVINGSPISQKIIYKENERFQYKCNMGYEYSERGDAVCTESGWRPLPSCE
As for B1, the affinity, expressed as Kd, was 18.1 µM.
